This passage reports stoichiometry N results from paper PMC7806768.

The target in the experiment is R.CcoLI(D225N) mutant (Campylobacter coli). Briefly: SEC; Superdex 200 HR 10/30; samples 2.3 uM; 10 mM MES pH 6.0, 200 mM NaCl, 1 mM TCEP; size estimated against marker proteins (aldolase, conalbumin, chymotrypsinogen A, ribonuclease A).

One may read the stoichiometry N as a count of units in the complex or per binding partner. As for R.CcoLI(D225N) mutant (enzyme), the stoichiometry N was 2.
